Laboratory results published in the supplement of paper PMC10899765.

Tests used:
Settings in all cases: 20 nM; 72 h
MCF10A [1] = experiment: one-nucleolus phenotype percent effect (relative to siNT 0% and siNOL11 100%); higher = more cells with one nucleolus (ribosome biogenesis inhibition)
Method: (§1)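 After 72 h, cells were fixed and stained with Hoechst and anti-fibrillarin, and nucleoli per nucleus were counted with CellProfiler. Values are plate-adjusted percent effect for the one-nucleolus and 5+ nucleoli phenotypes, normalised to siNT (0%) and to the positive controls siNOL11 or siKIF11 (100%), as the mean of biological triplicates. Percent viability is the nuclei count relative to siNT.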

MCF10A [2] = experiment: percent viability (nuclei count relative to siNT); higher = more viable cells
Method: as §1

MCF10A [3] = experiment: 5+ nucleoli phenotype percent effect (relative to siNT 0% and siKIF11 100%); higher = more cells with five or more nucleoli
Method: as §1

| Sequence | one-nucleolus phenotype percent effect (MCF10A [1]) [%] | percent viability (MCF10A [2]) [%] | 5+ nucleoli phenotype percent effect (MCF10A [3]) [%] |
| --- | --- | --- | --- |
| UUGCUCUGCUCCCCCGCCCCCAG [hsa-miR-6805-3p] | -15.8 | 36.2 | 43.1 |
| UUGCUUGAACCCAGGAAGUGGA [hsa-miR-1273e] | 53.6 | 29 | -48.1 |
| UUGGAAGCUUGGACCAACUAGCUG [hsa-miR-6079] | 28.7 | 31.5 | -27.8 |
| UUGGAAUAGGGGAUAUCUCAGC [hsa-miR-6505-5p] | 29.1 | 36.9 | -46.6 |
| UUGGACAGAAAACACGCAGGAA [hsa-miR-4520a-3p] | -3.29 | 59.1 | -25 |
| UUGGACGGUAAGGUUAAGCAA [hsa-miR-4804-5p] | 9.42 | 35.3 | -12.4 |
| UUGGACUUUUUCAGAUUUGGGGAU [hsa-miR-5009-5p] | 19.8 | 43.5 | -5.29 |
| UUGGAGGCGUGGGUUUU [hsa-miR-4443] | 61.2 | 20.9 | -29.8 |
| UUGGAGGGUGUGGAAGACAUC [hsa-miR-6515-5p] | 40.1 | 19 | -18.5 |
| UUGGCCACAAUGGGUUAGAAC [hsa-miR-588] | 9.67 | 40.2 | 11.2 |
| UUGGCCACCACACCUACCCCUU [hsa-miR-4701-5p] | 1.71 | 35.9 | 19.1 |
| UUGGCCAUGGGGCUGCGCGG [hsa-miR-3187-3p] | -2.01 | 30.1 | 12.9 |
| UUGGCUGGUCUCUGCUCCGCAG [hsa-miR-6842-3p] | 19.7 | 24.9 | -0.515 |
| UUGGGACAUACUUAUGCUAAA [hsa-miR-1302] | -3.28 | 46.9 | -1.97 |
| UUGGGAGGGAAGACAGCUGGAGA [hsa-miR-6780a-5p] | 55 | 13.4 | -30.2 |
| UUGGGAUCAUUUUGCAUCCAUA [hsa-miR-450b-3p] | -1.71 | 42.8 | -2.46 |
| UUGGGAUGGUAGGACCAGAGGGG [hsa-miR-6728-5p] | -15.8 | 50.3 | 24.3 |
| UUGGGCCCAGGAGUAAACAGGAU [hsa-miR-6773-5p] | -0.04 | 40.3 | -4.65 |
| UUGGGCUGGGCUGGGUUGGG [hsa-miR-1587] | 29.2 | 19.9 | -22.5 |
| UUGGGGAAACGGCCGCUGAGUG [hsa-miR-2110] | 45.4 | 42.2 | -27.7 |
| UUGGGGAUUGGGUCAGGCCAGU [hsa-miR-6857-5p] | 29.9 | 6.01 | -18 |
| UUGGGGGUGAGGUUGGUGUCUGG [hsa-miR-6751-5p] | 13.4 | 7.37 | -13.1 |
| UUGGGGUGGAGGGCCAAGGAGC [hsa-miR-6819-5p] | 37.8 | 3.49 | 2.57 |
| UUGGGGUGGUCGGCCCUGGAG [hsa-miR-6737-5p] | 48.7 | 7.13 | -19.8 |
